Laboratory results taken from patent US20240124535A1 (Molecular Partners, published 2024).
Read-outs that look alike come from different tables or passages of the source.

Columns and labels:
human serum albumin [1] = biological target: T1, human serum albumin (human, UniProt P02768 25-609); assay: SPR, ProteOn system (BioRad), in PBS
Description: Affinity of proteins of Example 2 to human serum albumin were determined by SPR measurements using a ProteOn system (BioRad) in PBS according to standard procedures known to the person skilled in the art.

human serum albumin [2] = biological target: T1, human serum albumin; assay: ELISA, serum albumin immobilized on plate, in PBST-C
Description: (§1) Samples of proteins of Example 2 were subjected to ELISA serum albumin cross-reactivity analyses as described in WO2016156596. 100 μl of 20 nM serum albumin in PBS per well were immobilized in a Maxisorp plate (Nunc, Denmark) overnight at 4° C. After washing 5 times with 300 μl PBST (PBS supplemented with 0.1% Tween 20), the wells were blocked with 300 μl PBST-C(PBST supplemented with 0.25% casein) for 2 h at room temperature with shaking at 450 rpm on a Titramax 1000 shaker (Heidolph, Germany). After washing 5 times as described above, 100 μl/well or 50 μl/well proteins #2, #3, or #4 (concentrations ranging from 100 nM to 0.01 pM for each protein) in PBST-C were applied and incubated for 2 h at room temperature with shaking at 450 rpm. After washing 5 times as described above, binding of the proteins was detected using 100 μl rabbit anti-designed ankyrin repeat domain monoclonal antibody in PBST-C for 1 h at room temperature with shaking at 450 rpm. After washing 5 times as described above, bound anti-designed ankyrin repeat domain antibody was detected using 100 μl/well goat anti-rabbit IgG-HRP conjugate in PBST-C for 1 h at room temperature with shaking at 450 rpm. After washing 5 times as described above, the ELISA was then developed using 100 μl BM soluble blue POD substrate (Roche, Switzerland), diluted 1:4 in water. The reaction was stopped after 5 min using 100 μl 1 M H2504. The OD (OD 450 nm-OD 620 nm) was then recorded. EC 50 values were determined using Graph Pad Prism (Table 3). […] The measured EC₅₀ values for cynomolgus monkey serum albumin binding are below 20 nM for proteins #2, #3, and #4.

[3] = biological target: T2, cynomolgus monkey serum albumin (cynomolgus monkey (Macaca fascicularis), UniProt A2V9Z4 25-608); assay: as above
Description: as §1

mouse serum albumin [4] = biological target: T3, mouse serum albumin (mouse, UniProt P07724 25-608); assay: as above
Description: as §1

human serum albumin [5] = biological target: T1, human serum albumin; assay: as above; remark: listed apart in the source
Description: as §1

[6] = biological target: T2, cynomolgus monkey serum albumin; assay: as above; remark: listed apart in the source
Description: as §1

mouse serum albumin [7] = biological target: T3, mouse serum albumin; assay: as above; remark: listed apart in the source
Description: as §1

T2 sequence (A2V9Z4 25-608 limits assumed): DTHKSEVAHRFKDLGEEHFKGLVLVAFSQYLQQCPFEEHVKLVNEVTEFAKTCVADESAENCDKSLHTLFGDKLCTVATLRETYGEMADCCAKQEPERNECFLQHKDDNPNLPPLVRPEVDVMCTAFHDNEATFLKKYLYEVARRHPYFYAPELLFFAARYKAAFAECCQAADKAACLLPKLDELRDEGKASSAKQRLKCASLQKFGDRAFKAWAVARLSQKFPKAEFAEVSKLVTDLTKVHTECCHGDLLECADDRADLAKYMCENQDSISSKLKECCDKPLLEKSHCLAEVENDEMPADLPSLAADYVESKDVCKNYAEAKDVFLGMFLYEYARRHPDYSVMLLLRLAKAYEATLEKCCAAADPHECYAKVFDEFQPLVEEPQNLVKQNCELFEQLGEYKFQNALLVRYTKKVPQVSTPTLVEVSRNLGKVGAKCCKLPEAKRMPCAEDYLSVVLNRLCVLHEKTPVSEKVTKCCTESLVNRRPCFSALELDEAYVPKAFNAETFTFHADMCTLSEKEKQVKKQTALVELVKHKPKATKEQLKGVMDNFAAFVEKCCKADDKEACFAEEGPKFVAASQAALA
T1 sequence (P02768 25-609 limits assumed): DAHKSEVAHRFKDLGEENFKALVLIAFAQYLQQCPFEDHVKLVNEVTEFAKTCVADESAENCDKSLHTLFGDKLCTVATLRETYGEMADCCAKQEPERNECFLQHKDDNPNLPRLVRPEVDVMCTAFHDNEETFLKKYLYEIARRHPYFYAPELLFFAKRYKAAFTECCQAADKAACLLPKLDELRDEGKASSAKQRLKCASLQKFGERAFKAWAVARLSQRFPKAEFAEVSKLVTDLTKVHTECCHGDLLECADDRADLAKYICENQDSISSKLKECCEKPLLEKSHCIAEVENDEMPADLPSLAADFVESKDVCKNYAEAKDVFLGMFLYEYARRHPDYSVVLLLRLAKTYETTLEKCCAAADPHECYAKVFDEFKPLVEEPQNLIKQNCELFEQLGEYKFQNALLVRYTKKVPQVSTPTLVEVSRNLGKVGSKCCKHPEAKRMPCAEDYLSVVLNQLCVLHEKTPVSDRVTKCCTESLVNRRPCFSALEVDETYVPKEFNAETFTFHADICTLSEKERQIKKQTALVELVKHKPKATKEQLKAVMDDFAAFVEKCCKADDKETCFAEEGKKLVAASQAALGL

Kd (human serum albumin [1])	EC50 (human serum albumin [2])	EC50 [3]	EC50 (mouse serum albumin [4])	EC50 (human serum albumin [5])	EC50 [6]	EC50 (mouse serum albumin [7])	Binder
31.1 nM	< 1 nM	< 20 nM	< 30 nM	0.32 nM	2.8 nM	9.6 nM	Protein #2 (SEQ ID NO: 2 with a His-tag (SEQ ID NO: 1) fused to its N-terminus) (designed binder) MRGSHHHHHHGSDLGKKLLEAARAGQDDEVRELLKAGADVNAKDYFSHTPLHLAARNGHLKIVEVLLKAGADVNAKDFAGKTPLHLAANEGHLEIVEVLLKAGADVNAQDIFGKTPADIAADAGHEDIAEVLQKAA
35.5 nM	< 1 nM	< 20 nM	< 30 nM	0.64 nM	6.8 nM	14.7 nM	Protein #3 (SEQ ID NO: 3 with a His-tag (SEQ ID NO: 1) fused to its N-terminus) (designed binder) MRGSHHHHHHGSDLGKKLLEAARAGQDDEVRELLKAGADVNAKDYFSHTPLHLAARNGHLKIVEVLLKAGADVNAKDFAGKTPLHLAAADGHLEIVEVLLKAGADVNAQDIFGKTPADIAADAGHEDIAEVLQKAA
34.4 nM	< 1 nM	< 20 nM	< 30 nM	0.84 nM	13.1 nM	24 nM	Protein #4 (SEQ ID NO: 4 with a His-tag (SEQ ID NO: 1) fused to its N-terminus) (designed binder) MRGSHHHHHHGSDLGKKLLEAARAGQDDEVRELLKAGADVNAKDYFSHTPLHLAARNGHLKIVEVLLKAGADVNAKDFAGKTPLHLAADAGHLEIVEVLLKAGADVNAQDIFGKTPADIAADAGHEDIAEVLQKAA
